Reference: the domain aggregation screens of Martell et al. (2025)

Test: soluble fraction after stress (log2 fold change); higher = more stays soluble; pooled small domains, quantitative proteomics
Details: stress: 75 degC
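Also: 20 min heating vs room temperature control held 20 min.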

| Sequence | soluble fraction (log2) |
| --- | --- |
| HMADTIEVVVQVNGKVRAKISTSPEVFADSTKLQELALADANVQKFIAGQTIRKVIIPKGTKLLNIV | -0.198 |
| HMADTSPEGVQKLIKAFEQFGVSKDDIEGFIQRRVDAITPANVVSLRKIFTSLRDGMSSAKDWFKGA | 0.095 |
| HMADVIKLVNTSVLNVRSGAGINYSKIGSLTQGTKVNIISESNGWSKINYNGKIGYISSQYVSEVS | -1.92 |
| HMADVLLKHGSSGDYVWDLQYRLKTLSLFDQEMTGYFGPHTRQAVVNFQRKYGLPADGVVGPATWRALRK | -2.41 |
| HMADVPSTIFEAYRILGLNPEAPPVAVKKVVDALRMSWHPDHARSEPDRRHREERIKQINAAWDLLKGV | -0.183 |
| HMADVYFDGKFLGETPVTVAVSTTGKPAHEISLIRGGYEPWSTTYQGNPRPGQTATVMAILVHA | 0.31 |
| HMAEAAVELSQQILARLLEAGGSLPLSDKSSPEDIHRLFGVSKRTFKKAIGGLYKKGLILIHPERIELP | -1.37 |
| HMAEAETVKFVGNSLLLVSGAAKGERLSVYTVGGQHVLSADATKPVDVAALHSGVYVVRTTNGVITKIVK | -1.25 |
| HMAEATATVTASEMVVRSGPSSSYSVLGSLEKGTVVTVLAASDGIAKISYKGNTGYARIVDMELNSA | -0.612 |
| HMAEDDAVQKAVREAVAESADAVADYKAGSERALNFIVGVVMKKTRGKASPGEVHRLVKAEVEK | 0.595 |
| HMAEDLRTLDGIDEDLLRDLAQAGITTRDGLAELSIDELREITGVEPGEAEKIILAARAHWFETDE | 0.0602 |
| HMAEEGEQAASNTAAQAEDRAAELAAAGEKGKQITKTLVAEFGIPKNEAYRLALDAVAAVKAER | -0.265 |
| HMAEEPLRIWTDLQGRSIEASFIKFSGNNIVIKMKSGRDYEVARSLFSPGDQKYLSDLKKSTPE | -1.5 |
| HMAEERVLSVPQSLAGERLDAALASLMPDYSRSRLASWIKEGLVTVDGAGAMPKQKLWGGETLRVQAQPT | 0.373 |
| HMAEKAVELTENEKAIQTILSNGALEIGELKTKLELSGKQWDVALKGLAKHGITQVSKVEGVVTVGL | 0.359 |
| HMAEKGIGRVNADWLNMRTSPGGEVLTVLKQGTELQVIGRSGSWLEVQHGNEQGYVSSRYITIQP | -0.356 |

| Sequence | soluble fraction (log2) |
| --- | --- |
| HMAEKVIVVADSITVGELAEKLNLPVTNLIGELFKNGIVSTINQRIDFETASIIVEELGLDVELERK | -0.137 |
| HMAELNLPVRKIGGEDYYYRQVKKKETIYGISKELGITKEDIIKYNPSVASGLQRNQILYFPVKDFK | -0.327 |
| HMAELVISVKADGTIHYQDRQLTKEALAAVLETRPEALLNLYVDEKAPFEAFVGVVDIARLKRGGHFVIST | -1.94 |
| HMAENPAYTKGVVNRLYKIRATPYYSYSYNVDQKTYEGRGKQYGEYENLHIGDTITVYYQRSNPSNSEA | -0.288 |
| HMAEPIEKIIIEGNQRIEALTIQSYLLLRVGEPFNRQLMNQTLKSLYATGYFSDVAVTRVSSSLLVK | 0.153 |
| HMAEPLEIGDTVRIIDGFYGGEIGVISELVNPDAKNAEFEQVRVRLDQDTELALPIHNVERVRL | 0.498 |
| HMAEPRVQEVYFEFDGKQVEAGQVVSLIEQAYKNEGHQIGRIKDLKVYINSEEGKAYYVINGDDGEGKYIE | 0.0727 |
| HMAESLHVTAAALFEGRAMLGIDGSRRLLRVGETSPEGVKLVSATAREAVIEIDGRRQTLAPGRDT | -0.133 |
| HMAESSLPKMPRDESKYIYHSVQPGETVYSLSKRYSVSESDIVKSNPGIDITKLSLGLEVAIPRI | 0.691 |
| HMAEVAFEEQNIEQISNLLLRIQAIFAELMTALDKEKGGEIADNLERLYVFFLEKLGDANVRKDPAP | 0.585 |
| HMAEVHVDGVTYQFSNPEQAVKFARKIAKELGLKVEVHGETVHVK | -0.0253 |
| HMAEVTLTVREQEVLHLLARGMSNGEMAAHLYVEPTTIKYHLTGLLQKTGSRDRLQAVLWGIRAGMVH | -2.81 |
| HMAEWIYGKNVVKQSIEEGMVLKLILQRKEDPLFVLAQEKQIPVEILDRHKMTSLVKSDRHQGVAAQI | -0.742 |
| HMAFEDYAGEYRSAADFAESLHEDTGTEIPESLRYYIDWQALARDMALNGEIMVFQTGFDEVHIFWS | -0.63 |
| HMAFEITSAERTRLEDIARKGLTAYTAEWKQLPASEKKALNKTGLQDFLKSMAADADSAREEEA | 0.0228 |
